Source: patent CN110903391A (DONGDA BIOTECHNOLOGY SUZHOU CO LTD, dated 2020)

How the values were obtained:
[1] = target: 带组氨酸标签的PD-L1抗原 (UniProt Q9NZQ7); test: Biacore 3000 SPR, antibody captured by anti-human IgG on CM5, PD-L1-His as analyte
[2] = target: T1, PD-L1 on 293T-PD-L1细胞 (human, UniProt Q9NZQ7 19-290); test: competition FACS on 293T-PD-L1 cells, competitor PD-1-biotin
T1 construct: whole, on cells; Construct not described

[3] = target: T1, PD-L1 on 293T-PD-L1细胞; test: FACS on 293T-PD-L1 cells
[4] = target: T2, PD-L1-ECD-hFc (human, UniProt Q9NZQ7 19-238); test: competition ELISA, PD-L1-ECD-hFc coated, competitor PD-1-biotin
T2 construct: extracellular domain; Coated on the ELISA plate; also called PD-L1-hFc; PD-L1-hFc蛋白; not shown: hFc: human Fc

[5] = target: T2, PD-L1-ECD-hFc; test: ELISA, PD-L1-ECD-hFc coated

T2 sequence (Q9NZQ7 19-238): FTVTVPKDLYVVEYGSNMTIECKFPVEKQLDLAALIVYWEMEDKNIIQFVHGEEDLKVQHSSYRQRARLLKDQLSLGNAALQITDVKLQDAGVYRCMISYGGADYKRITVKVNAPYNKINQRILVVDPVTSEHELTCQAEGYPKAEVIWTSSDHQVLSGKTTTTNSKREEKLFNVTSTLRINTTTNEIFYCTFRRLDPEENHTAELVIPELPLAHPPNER
T1 sequence (Q9NZQ7 19-290): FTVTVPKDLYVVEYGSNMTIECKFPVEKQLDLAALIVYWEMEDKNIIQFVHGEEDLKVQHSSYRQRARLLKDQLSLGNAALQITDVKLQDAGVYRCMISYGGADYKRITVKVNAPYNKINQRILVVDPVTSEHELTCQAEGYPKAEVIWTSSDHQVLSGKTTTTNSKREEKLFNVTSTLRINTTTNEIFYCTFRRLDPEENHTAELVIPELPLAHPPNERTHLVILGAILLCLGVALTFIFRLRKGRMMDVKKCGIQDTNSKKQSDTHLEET

Row | fold increase of affinity against humanized 6C8D8 [1] | IC50 [2] [µg/mL] | EC50 [3] [µg/mL] | IC50 [4] [µg/mL] | EC50 [5] [µg/mL] | fold increase of affinity against humanized 10E9C7G2 [1] | Binder
1 |  |  |  |  |  | 7.2 倍 (fold) | 亲和力成熟的人源化10E9C7G2抗体(重链Seq ID 48, 轻链Seq ID 50) (antibody, V domains shown) VH: QVQLQQSGPGLVKPSQTLSLTCAISGDSVSSGYWNWIRQSPSRGLEYMGYISYTGSTYYSLSLKSRITINRDTSKNQYSLQLNSVTPEDTAVYYCARGDYGSDWPPWFAYWGQGTTVTVSS VL: DIQMTQSPSSLSASVGDRVTITCSASISISSNSLQWYQQKPGKAPKLLIYRTTNLPSGVPSRFSGSGSGTDYTLTISSLQPEDFATYYCQQSGGLPLTFGQGTKLEIK
2 |  |  |  |  |  | 4.8 倍 (fold) | 亲和力成熟的人源化10E9C7G2抗体(重链Seq ID 49, 轻链Seq ID 50) (antibody, V domains shown) VH: QVQLQQSGPGLVKPSQTLSLTCAISGDSVSSGYWNWIRQSPSRGLEYMGYISYTGSTYYDLSLKSRITINRDTSKNQYSLQLNSVTPEDTAVYYCARGDYGSDWPPWFAYWGQGTTVTVSS VL: DIQMTQSPSSLSASVGDRVTITCSASISISSNSLQWYQQKPGKAPKLLIYRTTNLPSGVPSRFSGSGSGTDYTLTISSLQPEDFATYYCQQSGGLPLTFGQGTKLEIK

Second part, the binder before the results:

Row | Binder | fold increase of affinity against humanized 6C8D8 [1] | IC50 [2] [µg/mL] | EC50 [3] [µg/mL] | IC50 [4] [µg/mL] | EC50 [5] [µg/mL] | fold increase of affinity against humanized 10E9C7G2 [1]
3 | 亲和力成熟的人源化6C8D8抗体(重链Seq ID 43, 轻链Seq ID 44) (antibody, V domains shown) VH: QITLKESGPTLVKPTQTLTLTCTVSGFSLTSYDISWIRQPPGKALEWLGVIWTGGGTTYNSAFMSRLTITKDNSKNQVVLTMTNMDPVDTATYYCVRGRDWDFDYWGQGTLVTVSS VL: EIVLTQSPDFQSVTPKEKVTITCRASQSIGTSIHWYQQKPDQSPKLLIKYVSESISGVPSRFSGSGSGTDFTLTINSLEAEDAATYYCQQSNSWPFTFGQGTKLEIK | 9.25 倍 (fold) |  |  |  |  | 
4 | 6C8D8人源化完整抗体 (antibody, human IgG1, kappa, V domains shown, Humanized IgG1; expressed in 293 cells; also called hu6C8D8; 人源化的6C8D8抗体) VH: QITLKESGPTLVKPTQTLTLTCTVSGFSLTSYDISWIRQPPGKALEWLGVIWTGGGTNYNSAFMSRLTITKDNSKNQVVLTMTNMDPVDTATYYCVRGRDWDFDYWGQGTLVTVSS VL: EIVLTQSPDFQSVTPKEKVTITCRASQSIGTSIHWYQQKPDQSPKLLIKYASESISGVPSRFSGSGSGTDFTLTINSLEAEDAATYYCQQSNSWPFTFGQGTKLEIKR |  | 0.0437 | 0.0413 | 0.139 | 0.00224 | 
5 | 6F9B1A6人源化完整抗体 (antibody, human IgG1, kappa, V domains shown, Humanized IgG1; expressed in 293 cells; also called hu6F9B1A6; 人源化的6F9B1A6抗体) VH: QVQLVQSGAEVKKPGSSVKVSCKASGYTFIGYTVHWVRQAPGQGLEWIGWFYPGSGSIKYNEKFKDRATLTADKSTSTVYMELSSLRSEDTAVYYCARHGTGKFNYFDVWGQGTTVTVSS VL: DIQLTQSPSFLSASVGDRVTITCRASSTVSYMHWYQQKPGKAPKPWIYATFNLASGVPSRFSGSGSGTEYTLTISSLQPEDFATYYCQPWSSYPLTFGQGTKLEIKR |  | 0.0365 | 0.0412 | 0.108 | 0.00448 | 
6 | 10E9C7G2人源化完整抗体 (antibody, human IgG1, kappa, V domains shown, Humanized IgG1; expressed in 293 cells; also called hu10E9C7G2; 人源化的10E9C7G2抗体) VH: QVQLQQSGPGLVKPSQTLSLTCAISGDSITSGYWNWIRQSPSRGLEYMGYISYTGSTYYNLSLKSRITINRDTSKNQYSLQLNSVTPEDTAVYYCARGDYGSDWPPWFAYWGQGTTVTVSS VL: DIQMTQSPSSLSASVGDRVTITCSASSSISSNSLQWYQQKPGKAPKLLIYRTTNLPSGVPSRFSGSGSGTDYTLTISSLQPEDFATYYCQQSSGLPLTFGQGTKLEIKR |  | 0.0327 | 0.0392 | 0.147 | 0.000684 | 
